Measured values reported in patent publication US6485941B1, “Inhibition of the carboxyltransferase component of acetyl-CoA carboxylase, and the use of such inhibition in anti-cancer and anti-lipogenic therapies” (Board of Supervisors of Louisiana State University and …, priority 2002, dated 2002).

Substrate: CC(C)(COP(=O)(O)OP(=O)(O)OC[C@H]1O[C@@H](n2cnc3c(N)ncnc32)[C@H](O)[C@@H]1OP(=O)(O)O)[C@@H](O)C(=O)NCCC(=O)NCCSC(=O)CC(=O)O
Assay: Carboxyltransferase inhibition, assayed in the reverse direction with coupled spectrophotometric detection
Assay type: biochemical, E. coli
Details: other: substrate of carboxyltransferase
Description: Carboxyltransferase was purified from a strain of E. coli that overexpresses the genes encoding the α and β subunits of the enzyme.
Carboxyltransferase was assayed in the reverse direction: the production of acetyl-CoA was detected by using the coupling enzymes malate dehydrogenase and citrate synthase, and the reduction of NAD^+ was measured spectrophotometrically by the method of C.
In Equations [1] and [2], v is the initial velocity, Vm is the maximal velocity, A is the substrate concentration, I is the concentration of inhibitor, Km is the Michaelis constant, Kis is the slope inhibition constant, and Kii is the intercept inhibition constant.
v=VmA/(Km(1+I/Kis)+A(1+I/Kii)) [2]
The activity of carboxyltransferase was measured in the reverse direction using malonyl-CoA and biocytin as substrates.

B1: carboxyltransferase component of E. coli acetyl-CoA carboxylase (Escherichia coli K-12) (protein)
chain 1: MSLNFLDFEQPIAELEAKIDSLTAVSRQDEKLDINIDEEVHRLREKSVELTRKIFADLGAWQIAQLARHPQRPYTLDYVRLAFDEFDELAGDRAYADDKAIVGGIARLDGRPVMIIGHQKGRETKEKIRRNFGMPAPEGYRKALRLMQMAERFKMPIITFIDTPGAYPGVGAEERGQSEAIARNLREMSRLGVPVVCTVIGEGGSGGALAIGVGDKVNMLQYSTYSVISPEGCASILWKSADKAPLAAEAMGIIAPRLKELKLIDSIIPEPLGGAHRNPEAMAASLKAQLLADLADLDVLSTEDLKNRRYQRLMSYGYA
chain 2: MSWIERIKSNITPTRKASIPEGVWTKCDSCGQVLYRAELERNLEVCPKCDHHMRMTARNRLHSLLDEGSLVELGSELEPKDVLKFRDSKKYKDRLASAQKETGEKDALVVMKGTLYGMPVVAAAFEFAFMGGSMGSVVGARFVRAVEQALEDNCPLICFSASGGARMQEALMSLMQMAKTSAALAKMQERGLPYISVLTDPTMGGVSASFAMLGDLNIAEPKALIGFAGPRVIEQTVREKLPPGFQRSEFLIEKGAIDMIVRRPEMRLKLASILAKLMNLPAPNPEAPREGVVVPPVPDQEPEA
notes: made in house; host or cells: E. coli overexpression strain (Blanchard et al. 1998; G. Waldrop, LSU)
Question: Which Km does the source give for B1 here?
Answer: Its Km is 100 µM.
